The values below come from publication PMC2681181.

The assay has as its target Integrin β1 (human (endogenous in MCF-7 and MCF-10A)) (UniProt P05556). Kind of assay: co-IP.
Chain of UniProt P05556 (P05556 21-798): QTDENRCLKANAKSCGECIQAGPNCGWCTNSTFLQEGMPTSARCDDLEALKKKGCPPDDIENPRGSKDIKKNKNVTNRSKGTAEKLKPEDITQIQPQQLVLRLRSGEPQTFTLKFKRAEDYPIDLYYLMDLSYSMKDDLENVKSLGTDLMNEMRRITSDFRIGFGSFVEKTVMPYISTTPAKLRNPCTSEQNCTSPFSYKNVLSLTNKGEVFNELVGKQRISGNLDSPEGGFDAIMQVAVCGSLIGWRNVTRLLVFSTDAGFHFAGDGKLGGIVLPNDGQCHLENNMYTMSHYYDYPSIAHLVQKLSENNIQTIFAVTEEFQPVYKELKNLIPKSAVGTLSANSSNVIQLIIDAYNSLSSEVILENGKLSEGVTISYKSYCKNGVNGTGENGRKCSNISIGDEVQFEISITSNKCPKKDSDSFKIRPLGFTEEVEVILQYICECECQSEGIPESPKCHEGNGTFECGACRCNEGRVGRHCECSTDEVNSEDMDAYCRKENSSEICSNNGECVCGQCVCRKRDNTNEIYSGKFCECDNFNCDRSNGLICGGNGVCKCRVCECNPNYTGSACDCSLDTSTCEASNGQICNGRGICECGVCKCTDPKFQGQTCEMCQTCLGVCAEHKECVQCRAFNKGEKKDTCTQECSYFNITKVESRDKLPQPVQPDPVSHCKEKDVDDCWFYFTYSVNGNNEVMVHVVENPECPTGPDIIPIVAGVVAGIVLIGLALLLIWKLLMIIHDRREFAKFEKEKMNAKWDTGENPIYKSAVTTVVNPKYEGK

Take “Integrin α2 (from UniProt P17301 30-1181) (receptor)”: the percent increase of co-precipitated INTα2 after combined CII/LAM treatment stood at 53.8%.
With “laminin (from UniProt P02469 22-1786) (complex)”, the percent decrease of co-precipitated LAM in the combined CII/LAM treatment came out at 27.8%.
On to “type II collagen (from UniProt P02459 182-1241) (ligand)”, for which the percent decrease of co-precipitated CII in the combined CII/LAM treatment came to 27.1%.
